# Results: US11253617B2, “One step 64Cu-BaBaSar-RGD2 production method” (UNIVERSITY OF SOUTHERN CALIFORNIA, priority 2017, dated 2022)
# “And” between values parts separate entries of the source, which are not always exact repeats. Equal values may be shown once. Read-outs that look alike come from different tables or passages of the source.
# Assays:
# [1] = reference 24; cited from earlier work
# [2] = test system: U87MG glioblastoma tumor; conditions: cited from earlier work
# [3] = Blood clearance from venous blood samples during PET scan; format: in vivo, monkey
# Method: Venous blood samples were withdrawn from monkey during the PET scan. […] At 22 h after injection, the activity in the blood decreased to 0.79±0.52% ID. Based on the percentage of injected dose in blood sample, the half life of ^64Cu-BaBaSar-RGD2 in blood pool was calculated as 12.1±4.0 min (n=3).
# [4] = in vitro and in vivo, reference 23; cited from earlier work
# [5] = Estimated human absorbed doses (Olinda/EXM) from PET biodistribution in macaque monkey; format: in vivo
# Method: (§1) The PET images at 1, 5, 10, 20, 40, 60, 120, and 180 min after injection are disclosed in FIG. 4. […] The bladder content was visualized at 10 min after injection and more and more activity was accumulated in urine bladder content. […] Gallbladder uptake was not observed during the whole scan. […] The urinary bladder had the highest uptake, with 51.37%±8.73% of injected activity at 1 h post injection. The maximum uptake for the liver, and kidneys were 37.40±6.63% ID (9 min) and 26.79±4.35% ID (0.5 min) respectively.
# The mean organ doses for the human phantom were calculated with Olinda/EXM using ^64Cu-BaBaSar-RGD2 biodistribution in monkey (Table 2). The kidneys had the highest radiation-absorbed doses (108.43 μGy/MBq), followed by the bladder wall (87.07 μGy/MBq). The mean effective dose of ^64Cu-BaBaSar-RGD2 was 15.30±2.21 μSv/MBq. […] The estimated doses for […] were higher by 18% because body and organ sizes of women are smaller than those men (data not shown).
# Integrin αvβ3-targeted radiopharmaceutical ^64Cu-BaBaSar-RGD2 has been successfully synthesized with the one-step kit method. The straightforward method greatly simplifies the production process and benefits the clinical application of ^64Cu-BaBaSar-RGD2. Human radiation dosimetry of ^64Cu-BaBaSar-RGD2 was estimated after intravenous administration in macaque monkey, by PET imaging and OLINDA/EXM calculations. The critical organs were kidneys and urinary bladder wall. The mean effective dose, determined with the male adult model, was […]. […] Therefore, ^64Cu-BaBaSar-RGD2 can safely be used in human scan for further evaluation of its performance as an integrin-targeting probe.
# [6] = Vital signs after injection in macaque monkey; format: in vivo; conditions: 13.1-19.7 MBq/kg, during and 24-h after PET scan
# Method: as §1
# [7] = PET/CT biodistribution in macaque monkey; format: in vivo; conditions: for tissue uptake dose: monkey, iv, total radioactivity
# Method: FIG. 4: Decay-corrected anterior maximum-intensity projections of PET/CT at 1, 5, 10, 20, 40, 60, 120, and 180 min after injection of ^64Cu-BaBaSar-RGD2 in macaque monkey.
# as §1
# [8] = human phantom, Olinda/EXM, monkey biodistribution, Mean ± SD
# [9] = male human phantom, Olinda/EXM, monkey biodistribution, Mean ± SD
smiles,measurement,setting,value
"OC[C@H]1OC(O)[C@H]([18F])[C@@H](O)[C@@H]1O (stereo partly drawn) [^18F-FDG, 2-deoxy-2-[^18F]fluoro-D-glucose]",Estimated dose in a whole-body PET scan,[1],6.23 mSv
"N=C(N)NCCC[C@@H]1NC(=O)[C@H](CCCCNC(=O)c2ccc(CNC34CNCCNCC(NCc5ccc(C(=O)NCCCC[C@@H]6NC(=O)[C@@H](Cc7ccc(O)cc7)NC(=O)[C@H](CC(=O)O)NC(=O)CNC(=O)[C@H](CCCNC(=N)N)NC6=O)cc5)(CNCCNC3)CNCCNC4)cc2)NC(=O)[C@@H](Cc2ccc(O)cc2)NC(=O)[C@H](CC(=O)O)NC(=O)CNC1=O [^64Cu-BaBaSar-RGD2, metal not drawn]",Tumor uptake,"[2]; U87MG glioblastoma tumor bearing mice, reference 23",high tumor uptake
same,Normal organ uptake,"[2]; mouse, in vivo",low normal organ uptake
same,Activity remaining in blood,"[3]; 3 h after injection, decay corrected",2.88±0.88 % ID
same,Activity remaining in blood (range),"[3]; 3 h after injection, range",2.07-3.82 % ID
same,Activity in the blood,[3]; 22 h after injection,0.79±0.52 % ID
same,Clearance from the blood,[3]; decay corrected activity per unit of blood sample,cleared rapidly from the blood
same,Stability,[4],great stability both in vitro and in vivo
same,Effective dose for the non-voiding model,[5]; 925-MBq administrated into human subject,14.2 mSv
same,"Mean effective dose, male adult model","[5]; OLINDA/EXM, intravenous administration in macaque monkey",15.30±2.21 Sv/MBq
same,"Estimated doses for the female human, higher than male by",[5]; female versus male human phantom,18%
same,"Estimated human absorbed dose, Ovaries",[5]; [8],2.88 ± 0.44 μGy/MBq
same,"Estimated human absorbed dose, Uterus",[5]; [8],4.16 ± 0.63 μGy/MBq
same,Effective Dose (mean),[5]; [9],15.30±2.21 μSv/MBq
same,"Estimated human absorbed dose, Adrenals",[5]; [9],3.34 ± 0.52 μGy/MBq
same,"Estimated human absorbed dose, Brain",[5]; [9],1.27 ± 0.22 μGy/MBq
same,"Estimated human absorbed dose, Breasts",[5]; [9],1.34 ± 0.23 μGy/MBq
same,"Estimated human absorbed dose, Gall bladder Wall",[5]; [9],3.07 ± 0.49 μGy/MBq
same,"Estimated human absorbed dose, Heart Wall",[5]; [9],4.39 ± 0.62 μGy/MBq
same,"Estimated human absorbed dose, Kidneys",[5]; [9],108.43 μGy/MBq and 108.43 ± 16.41 μGy/MBq
same,"Estimated human absorbed dose, LLI Wall",[5]; [9],2.86 ± 0.44 μGy/MBq
same,"Estimated human absorbed dose, Liver",[5]; [9],7.54 ± 1.15 μGy/MBq
same,"Estimated human absorbed dose, Lungs",[5]; [9],1.67 ± 0.28 μGy/MBq
same,"Estimated human absorbed dose, Muscle",[5]; [9],1.88 ± 0.31 μGy/MBq
same,"Estimated human absorbed dose, Osteogenic Cells",[5]; [9],7.01 ± 0.91 μGy/MBq
same,"Estimated human absorbed dose, Pancreas",[5]; [9],2.86 ± 0.45 μGy/MBq
same,"Estimated human absorbed dose, Red Marrow",[5]; [9],9.29 ± 1.02 μGy/MBq
same,"Estimated human absorbed dose, Skin",[5]; [9],1.38 ± 0.24 μGy/MBq
same,"Estimated human absorbed dose, Small Intestine",[5]; [9],4.53 ± 0.68 μGy/MBq
same,"Estimated human absorbed dose, Spleen",[5]; [9],6.78 ± 0.88 μGy/MBq
same,"Estimated human absorbed dose, Stomach Wall",[5]; [9],2.11 ± 0.34 μGy/MBq
same,"Estimated human absorbed dose, Testes",[5]; [9],2.03 ± 0.33 μGy/MBq
same,"Estimated human absorbed dose, Thymus",[5]; [9],1.56 ± 0.26 μGy/MBq
same,"Estimated human absorbed dose, Thyroid",[5]; [9],1.39 ± 0.24 μGy/MBq
same,"Estimated human absorbed dose, Total Body",[5]; [9],2.76 ± 0.42 μGy/MBq
same,"Estimated human absorbed dose, ULI Wall",[5]; [9],2.47 ± 0.39 μGy/MBq
same,"Estimated human absorbed dose, Urinary Bladder Wall",[5]; [9],87.07 μGy/MBq and 87.07 ± 12.38 μGy/MBq
same,"Effects on vital signs (blood pressure, pulse, electrocardiogram)",[6],no observable effects on vital signs
same,Urinary bladder uptake,"[7]; 1 h post injection, bladder not voided (anesthesia)",51.37%±8.73%
same,"Activity in gallbladder, small intestine, upper and lower large intestine",[7]; 3 h post injection,8.62%±1.41%
same,Gallbladder uptake,[7]; during the whole scan,not observed
same,tissue uptake dose,"[7]; kidneys, at 0.5 min, read-out: Maximum uptake for the kidneys",26.8 ± 4.35 %ID
same,tissue uptake dose,"[7]; liver, at 9 min, read-out: Maximum uptake for the liver",37.4 ± 6.63 %ID
